Source: patent US20140308285A1 (Amgen, published 2014)
Like-named read-outs stand apart in the source and are kept apart here. Values belong to the binder of their own block, whether it stands above or below them.

Tests used:
[1] = target: T1, human CD3 (CD3 epsilon chain) on human T cells (human, UniProt P07766 22-207); assay: FACS on isolated human T cells, FITC anti-human light chain secondary antibody
T1 construct: The assay used isolated human T cells, which carry CD3 as part of the TCR-CD3 complex; also called CD3ε
T1 sequence (P07766 22-207 limits assumed): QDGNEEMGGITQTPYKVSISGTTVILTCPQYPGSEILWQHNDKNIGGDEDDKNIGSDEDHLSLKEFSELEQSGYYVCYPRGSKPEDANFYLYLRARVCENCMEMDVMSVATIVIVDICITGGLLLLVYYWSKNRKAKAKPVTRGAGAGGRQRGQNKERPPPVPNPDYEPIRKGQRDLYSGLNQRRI
Method: (§1) The heterodimeric bispecific antibodies described in Example 1 were produced in HEK 293 cells and were assayed by fluorescence activated cell sorting (FACS) for binding to T cells, which express CD3, and to a human ovarian cancer cell line, Ovcar-8, which expresses mesothelin. Briefly, the heterodimeric bispecific antibodies were incubated with about 50,000 Ovcar-8 cells or isolated human or cynomolgus monkey T cells at 4° C. for one hour. The cells were then washed and stained with a fluorescein isothiocyanate (FITC)-conjugated anti-human light chain secondary antibody and analyzed by flow cytometry. The relative binding was represented by the geometric mean of fluorescence intensity.
(§2) Another set of constructs was made by methods similar to those used above using the same pair of anti-MSLN VH and VL regions as used in most constructs described above and a different pair of anti-CD3 VH and VL regions than used in most of the constructs described above. […] These constructs were tested using the assays described above, as well as the cynomolgus monkey T cell-dependent cell cytolysis (called “cyno TDCC”) assay described below.

[2] = target: T2, cynomolgus monkey CD3 (CD3 epsilon chain) on cynomolgus monkey T cells (cynomolgus monkey (Macaca fascicularis), UniProt Q95LI5 22-198); assay: FACS on isolated cynomolgus monkey T cells, FITC anti-human light chain secondary antibody
T2 construct: The assay used isolated cynomolgus monkey T cells; also called cyno CD3
T2 chain: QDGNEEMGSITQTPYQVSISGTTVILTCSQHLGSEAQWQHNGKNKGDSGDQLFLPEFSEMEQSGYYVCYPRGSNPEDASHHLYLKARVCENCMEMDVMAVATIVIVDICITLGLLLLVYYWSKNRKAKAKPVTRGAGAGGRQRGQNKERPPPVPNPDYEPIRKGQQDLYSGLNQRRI
Method: as §1, §2

[3] = target: T2, cynomolgus monkey CD3 (CD3 epsilon …); assay: cell-based or functional assay
[4] = target: T1, human CD3 (CD3 epsilon chain) on human …; assay: FACS on isolated human T cells, FITC anti-human light chain secondary antibody; remark: listed apart in the source
Method: as §1

- FACS binding (geometric mean) [1]: 11
- FACS binding (geometric mean) [2]: 110
- Cyno TDCC EC50 (pM), Ovcar-8 cells with cynomolgus monkey T cells [3]: 18.8 pM
B4: H69072.4 (bispecific antibody)
chain 1: DIQMTQSPSSVSASVGDRVTITCRASQGISSWLAWYQQKPGKAPKLLIYAASSLQSGVPSRFSGSGSGAAFTLTISSLQPEDFATYFCQQANSFPLTFAGGTKVDIKRGGGGSGGGGSQVQLQESGPGLVKPSQTLSLTCTVSGGSINNNNYYWTWIRQHPGKGLEWIGYIYYSGSTFYNPSLKSRVTISVDTSKTQFSLKLSSVTAADTAVYYCAREDTMTGLDVWGQGTTVTVSSASTKGPSVFPLAPCSRSTSESTAALGCLVKDYFPEPVTVSWNSGALTSGVHTFPAVLQSSGLYSLSSVVTVPSSNFGTQTYTCNVDHKPSNTKVDKTVGGGGSAAAVPRDLEVVAATPTSLLISWDAPHHGVAYYRITYGETGGNSPVQEFTVPGSKSTATISGLKPGVDYTINVYAVLAYPRGYPLSKPISINYRTDYKDDDDKGSSHHHHHH
chain 2: DIQMTQSPSSLSASVGDRVTITCRASQSINNYLNWYQQKPGKAPTLLIYAASSLQSGVPSRFSGSRSGTDFTLTISSLQPEDFAAYFCQQTYSNPTFGQGTKVEVKGGGGSGGGGSQVQLVESGGGVVQPGRSLRLSCAASGFTFSSYGMHWVRQAPGKGLEWVAVISYPGNTKYYADSVKGRFTISRDNSKNTLYLQMNSLRAEDTAVYFCARDQKEWRLIFDYWGQGTLVTVSSRTVAAPSVFIFPPSDEQLKSGTASVVCLLNNFYPREAKVQWKVDNALQSGNSQESVTEQDSKDSTYSLSSTLTLSKADYEKHKVYACEVTHQGLSSPVTKSFNRGEC
- Cyno TDCC Max killing (%), Ovcar-8 cells with cynomolgus monkey T cells [3]: 91%

- FACS binding (geometric mean) [1]: 66
- FACS binding (geometric mean) [2]: 276
- Cyno TDCC EC50 (pM), Ovcar-8 cells with cynomolgus monkey T cells [3]: 8.1 pM
B5: H71365.2 (bispecific antibody)
chain 1: QVQLVESGGGVVQPGRSLRLSCAASGFTFSSYGMHWVRQAPGKGLEWVAVISYPGNTKYYADSVKGRFTISRDNSKNTLYLQMNSLRAEDTAVYFCARDQKEWRLIFDYWGQGTLVTVSSGGGGSGGGGSQVQLQESGPGLVKPSQTLSLTCTVSGGSINNNNYYWTWIRQHPGKGLEWIGYIYYSGSTFYNPSLKSRVTISVDTSKTQFSLKLSSVTAADTAVYYCAREDTMTGLDVWGQGTTVTVSSASTKGPSVFPLAPCSRSTSESTAALGCLVKDYFPEPVTVSWNSGALTSGVHTFPAVLQSSGLYSLSSVVTVPSSNFGTQTYTCNVDHKPSNTKVDKTVGGGGSAAAVPRDLEVVAATPTSLLISWDAPHHGVAYYRITYGETGGNSPVQEFTVPGSKSTATISGLKPGVDYTINVYAVLAYPRGYPLSKPISINYRTDYKDDDDKGSSHHHHHH
chain 2: DIQMTQSPSSVSASVGDRVTITCRASQGISSWLAWYQQKPGKAPKLLIYAASSLQSGVPSRFSGSGSGAAFTLTISSLQPEDFATYFCQQANSFPLTFAGGTKVDIKRGGGGSGGGGSDIQMTQSPSSLSASVGDRVTITCRASQSINNYLNWYQQKPGKAPTLLIYAASSLQSGVPSRFSGSRSGTDFTLTISSLQPEDFAAYFCQQTYSNPTFGQGTKVEVKRTVAAPSVFIFPPSDEQLKSGTASVVCLLNNFYPREAKVQWKVDNALQSGNSQESVTEQDSKDSTYSLSSTLTLSKADYEKHKVYACEVTHQGLSSPVTKSFNRGEC
notes: also called H71364.2
- Cyno TDCC Max killing (%), Ovcar-8 cells with cynomolgus monkey T cells [3]: 86%

Second part, the binder before the results:

B1: H69071.4 (bispecific antibody)
chain 1: QVQLQESGPGLVKPSQTLSLTCTVSGGSINNNNYYWTWIRQHPGKGLEWIGYIYYSGSTFYNPSLKSRVTISVDTSKTQFSLKLSSVTAADTAVYYCAREDTMTGLDVWGQGTLVTVSSGGGGSGGGGSDIQMTQSPSSVSASVGDRVTITCRASQGISSWLAWYQQKPGKAPKLLIYAASSLQSGVPSRFSGSGSGAAFTLTISSLQPEDFATYFCQQANSFPLTFAGGTKVDIKRASTKGPSVFPLAPCSRSTSESTAALGCLVKDYFPEPVTVSWNSGALTSGVHTFPAVLQSSGLYSLSSVVTVPSSNFGTQTYTCNVDHKPSNTKVDKTVGGGGSAAAVPRDLEVVAATPTSLLISWDAPHHGVAYYRITYGETGGNSPVQEFTVPGSKSTATISGLKPGVDYTINVYAVLAYPRGYPLSKPISINYRTDYKDDDDKGSSHHHHHH
chain 2: QVQLVESGGGVVQPGRSLRLSCAASGFTFSSYGMHWVRQAPGKGLEWVAVISYPGNTKYYADSVKGRFTISRDNSKNTLYLQMNSLRAEDTAVYFCARDQKEWRLIFDYWGQGTLVTVSSGGGGSGGGGSDIQMTQSPSSLSASVGDRVTITCRASQSINNYLNWYQQKPGKAPTLLIYAASSLQSGVPSRFSGSRSGTDFTLTISSLQPEDFAAYFCQQTYSNPTFGQGTKVEVKRTVAAPSVFIFPPSDEQLKSGTASVVCLLNNFYPREAKVQWKVDNALQSGNSQESVTEQDSKDSTYSLSSTLTLSKADYEKHKVYACEVTHQGLSSPVTKSFNRGEC
notes: also called H69071.2
- FACS binding (geometric mean) [1]: 16
- FACS binding (geometric mean) [2]: 121
- Cyno TDCC EC50 (pM), Ovcar-8 cells with cynomolgus monkey T cells [3]: 3.2 pM
- Cyno TDCC Max killing (%), Ovcar-8 cells with cynomolgus monkey T cells [3]: 88%

B2: P57216.9 (bispecific antibody)
chain 1: QVQLQESGPGLVKPSQTLSLTCTVSGGSINNNNYYWTWIRQHPGKGLEWIGYIYYSGSTFYNPSLKSRVTISVDTSKTQFSLKLSSVTAADTAVYYCAREDTMTGLDVWGQGTLVTVSSASTKGPEVQLVESGGGLVKPGVSLRLSCAASGFTFSRYSMNWVRQAPGKGLEWVSSISSSGTYIKYADSVKGRFTISRDNAKNSLNLQMNSLRAEDTAVYYCARDRDRYPLDYWGQGTLVTVSSASTKGPSVFPLAPCSRSTSESTAALGCLVKDYFPEPVTVSWNSGALTSGVHTFPAVLQSSGLYSLSSVVTVPSSNFGTQTYTCNVDHKPSNTKVDKTVGGGGSAAAVPRDLEVVAATPTSLLISWDAPHHGVAYYRITYGETGGNSPVQEFTVPGSKSTATISGLKPGVDYTINVYAVLAYPRGYPLSKPISINYRTDYKDDDDKGSSHHHHHH
chain 2: DIQMTQSPSSLSASVGDRVTITCRASQSINNYLNWYQQKPGKAPTLLIYAASSLQSGVPSRFSGSRSGTDFTLTISSLQPEDFAAYFCQQTYSNPTFGQGTKVEVKRTVAAPSSYELTQPPSVSVSPGQTARITCSGDALPKKYAYWYQQKSGQAPVLVIYEATKRPSGIPERFSGSSSGTMATLTLSGAQVEDEADYYCYSTDSTNYHWVFGGGTKLTVLGQPKAAPSVTLFPPSSEELQANKATLVCLISDFYPGAVTVAWKADSSPVKAGVETTTPSKQSNNKYAASSYLSLTPEQWKSHRSYSCQVTHEGSTVEKTVAPTECS
- FACS binding (geometric mean) [4]: 103

B3: H69070.4 (bispecific antibody)
chain 1: QVQLVESGGGVVQPGRSLRLSCAASGFTFSSYGMHWVRQAPGKGLEWVAVISYPGNTKYYADSVKGRFTISRDNSKNTLYLQMNSLRAEDTAVYFCARDQKEWRLIFDYWGQGTLVTVSSASTKGPQVQLQESGPGLVKPSETLSLTCTVSGGSIISHYWSWIRQPPGKGLEWIGYIYYSGSTNYNPSLKSRVTISVDTSKNQFSLKLTSVTAADTAVYYCARDGWSAFDYWGQGTLVTVSSASTKGPSVFPLAPCSRSTSESTAALGCLVKDYFPEPVTVSWNSGALTSGVHTFPAVLQSSGLYSLSSVVTVPSSNFGTQTYTCNVDHKPSNTKVDKTVGGGGSAAAVPRDLEVVAATPTSLLISWDAPHHGVAYYRITYGETGGNSPVQEFTVPGSKSTATISGLKPGVDYTINVYAVLAYPRGYPLSKPISINYRTDYKDDDDKGSSHHHHHH
chain 2: DIQMTQSPSSVSASVGDRVTITCRASQGISSWLAWYQQKPGKAPKLLIYAASSLQSGVPSRFSGSGSGAAFTLTISSLQPEDFATYFCQQANSFPLTFAGGTKVDIKRTVAAPDIQMTQSPSSLSASVGDRVTITCRASQGIRNALGWYQQKPGKAPKRLIYAASSLQSGVPSRFSGSGSGTEFTLTISSLQPEDFATYYCLQHNSYPRTFGQGTKVEIRRTVAAPSVFIFPPSDEQLKSGTASVVCLLNNFYPREAKVQWKVDNALQSGNSQESVTEQDSKDSTYSLSSTLTLSKADYEKHKVYACEVTHQGLSSPVTKSFNRGEC
- FACS binding (geometric mean) [1]: 9
- FACS binding (geometric mean) [2]: 127
- Cyno TDCC EC50 (pM), Ovcar-8 cells with cynomolgus monkey T cells [3]: 3 pM
- Cyno TDCC Max killing (%), Ovcar-8 cells with cynomolgus monkey T cells [3]: 88%
